According to the supplement of paper PMC9112550, “Optimization of the antimicrobial peptide Bac7 by deep mutational scanning” (BMC Biology, 2022):

tested on: Escherichia coli TOP10; assay: shrunken log2 fold change of peptide-encoding DNA abundance (4.5 h post-induction vs induction); higher = less antimicrobial activity (less host growth inhibition); conditions: time post-induction: 4.5 h; library: site-saturation at positions 5, 18, 19, 20
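Note: peptides expressed intracellularly from a pBAD plasmid library in pooled LB shake-flask culture, induced with 0.3% L-arabinose, DNA abundance read by NGS, three biological replicates, DESeq2 with apeglm shrinkage.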

Row | Sequence | shrunken log2 fold change
1 | RRIRERPPRLPRPRPRPHGAPRP | 0.0169
2 | RRIRYRPPRLPRPRPRPSSRPRP | -0.0331
3 | RRIRPRPPRLPRPRPRPHESPRP | 0.0891
4 | RRIRTRPPRLPRPRPRPQVEPRP | -0.00619
5 | RRIRIRPPRLPRPRPRPFNYPRP | -0.149
6 | RRIRWRPPRLPRPRPRPCYRPRP | 0.131
7 | RRIRKRPPRLPRPRPRPQCNPRP | -0.0696
8 | RRIRMRPPRLPRPRPRPWCIPRP | -0.315
9 | RRIRKRPPRLPRPRPRPQVWPRP | -0.0233
10 | RRIRHRPPRLPRPRPRPSAVPRP | -0.341
11 | RRIRKRPPRLPRPRPRPCEFPRP | 0.252
12 | RRIRVRPPRLPRPRPRPNTIPRP | -0.571
13 | RRIRGRPPRLPRPRPRPHFGPRP | 0.242
14 | RRIRQRPPRLPRPRPRPFQAPRP | -0.207
15 | RRIRIRPPRLPRPRPRPKPMPRP | -0.0736
16 | RRIRIRPPRLPRPRPRPTDDPRP | -0.217
17 | RRIRRRPPRLPRPRPRPRSWPRP | 0.648
18 | RRIRWRPPRLPRPRPRPPRRPRP | 0.642
19 | RRIRGRPPRLPRPRPRPAEQPRP | 1.25
20 | RRIRHRPPRLPRPRPRPLRLPRP | 0.199
21 | RRIRTRPPRLPRPRPRPTLVPRP | 0.0196
22 | RRIRARPPRLPRPRPRPNHMPRP | -0.299
23 | RRIRCRPPRLPRPRPRPYNKPRP | -1.02
24 | RRIRLRPPRLPRPRPRPRWYPRP | -0.206
25 | RRIRVRPPRLPRPRPRPFLNPRP | -0.148

Row | Sequence | shrunken log2 fold change
26 | RRIRRRPPRLPRPRPRPIRLPRP | -0.104
27 | RRIRIRPPRLPRPRPRPAQTPRP | -0.0145
28 | RRIRPRPPRLPRPRPRPVWYPRP | -0.219
29 | RRIRLRPPRLPRPRPRPRDHPRP | 0.0215
30 | RRIRRRPPRLPRPRPRPFMEPRP | 0.0534
31 | RRIRCRPPRLPRPRPRPYGCPRP | -0.00123
32 | RRIRLRPPRLPRPRPRPFCWPRP | 0.231
33 | RRIRMRPPRLPRPRPRPQFQPRP | -0.165
34 | RRIRERPPRLPRPRPRPPIFPRP | -0.0515
35 | RRIRWRPPRLPRPRPRPKHHPRP | -0.208
36 | RRIRARPPRLPRPRPRPKWLPRP | 0.234
37 | RRIRDRPPRLPRPRPRPWEMPRP | 0.335
38 | RRIRGRPPRLPRPRPRPMTMPRP | 0.146
39 | RRIRQRPPRLPRPRPRPNLWPRP | -0.0933
40 | RRIRDRPPRLPRPRPRPENGPRP | 0.0234
41 | RRIRPRPPRLPRPRPRPCHMPRP | -0.0442
42 | RRIRFRPPRLPRPRPRPTHRPRP | -0.0781
43 | RRIRRRPPRLPRPRPRPVGRPRP | 0.472
44 | RRIRCRPPRLPRPRPRPMWSPRP | -0.147
45 | RRIRCRPPRLPRPRPRPKIMPRP | -0.622
46 | RRIRRRPPRLPRPRPRPGGAPRP | 0.492
47 | RRIRHRPPRLPRPRPRPAQNPRP | 0.212
48 | RRIRMRPPRLPRPRPRPTDWPRP | 1.27
49 | RRIRVRPPRLPRPRPRPCGTPRP | -0.317
50 | RRIRNRPPRLPRPRPRPQKMPRP | -0.134

Row | Sequence | shrunken log2 fold change
51 | RRIRQRPPRLPRPRPRPAFDPRP | -0.094
52 | RRIRLRPPRLPRPRPRPHHNPRP | -0.547
53 | RRIRSRPPRLPRPRPRPSKKPRP | -0.334
54 | RRIRRRPPRLPRPRPRPLCQPRP | -0.00285
55 | RRIRCRPPRLPRPRPRPYLDPRP | -0.575
56 | RRIRCRPPRLPRPRPRPMNGPRP | -0.0977
57 | RRIRTRPPRLPRPRPRPLFPPRP | -0.415
58 | RRIRVRPPRLPRPRPRPEPIPRP | 0.0124
59 | RRIRGRPPRLPRPRPRPPWYPRP | 0.26
60 | RRIRHRPPRLPRPRPRPMWHPRP | -0.152
61 | RRIRPRPPRLPRPRPRPKFTPRP | -0.141
62 | RRIRLRPPRLPRPRPRPAWEPRP | 0.185
63 | RRIRFRPPRLPRPRPRPFPVPRP | -0.0374
64 | RRIRRRPPRLPRPRPRPSSTPRP | 0.197
65 | RRIRKRPPRLPRPRPRPYLTPRP | -0.413
66 | RRIRERPPRLPRPRPRPKSNPRP | -0.472
67 | RRIRLRPPRLPRPRPRPMWMPRP | -0.00116
68 | RRIRTRPPRLPRPRPRPPYKPRP | -0.294
69 | RRIRERPPRLPRPRPRPIFLPRP | -0.288
70 | RRIRFRPPRLPRPRPRPYDVPRP | -0.185
71 | RRIRWRPPRLPRPRPRPCKNPRP | -0.0451
72 | RRIRTRPPRLPRPRPRPKLAPRP | 0.163
73 | RRIRIRPPRLPRPRPRPTPMPRP | -0.102
74 | RRIRARPPRLPRPRPRPGGCPRP | 0.81
75 | RRIRFRPPRLPRPRPRPWSNPRP | -0.0867
